In article PMC12102336:

B1: 14mer ITC duplex (dsDNA)
DNA 1: CGCTAATTAGCTCG
DNA 2: CGAGCTAATTAGCG
B2: P3 EMSA probe (dsDNA)
DNA 1: TGTGTCTTAATTAGATTAACGCACTTGATAGTGCGGGCGTGGCT
DNA 2: AGCCACGCCCGCACTATCAAGTGCGTTAATCTAATTAAGACACA

Key:
ALX4 R218Q [1] = biological target: T1, ALX4 R218Q (Mus musculus (region identical to human), UniProt Q9H161 209-274, R218Q); assay: ITC
ALX4 R218Q [2] = biological target: T1, ALX4 R218Q; assay: EMSA
ALX4 R215A;R216A = ALX4 R215A;R216A (Mus musculus (region identical to human), UniProt Q9H161 209-274, R215A;R216A); assay: EMSA
ALX4 R216A = ALX4 R216A (Mus musculus (region identical to human), UniProt Q9H161 209-274, R216A); assay: EMSA
ALX4 R215A = ALX4 R215A (Mus musculus (region identical to human), UniProt Q9H161 209-274, R215A); assay: EMSA
ALX4 R216G = ALX4 R216G (Mus musculus (region identical to human), UniProt Q9H161 209-274, R216G); assay: EMSA
ALX4 Q225E = ALX4 Q225E (Mus musculus (region identical to human), UniProt Q9H161 209-274, Q225E); assay: EMSA
[3] = biological target: ALX4 169-303;ALX4 HD (209-274) (Mus musculus (region identical to …, UniProt Q9H161;Q9H161 169-303;209-274, |)); assay: EMSA
ALX4 169-303;ALX4 R272P = ALX4 169-303;ALX4 R272P (Mus musculus (region identical to …, UniProt Q9H161;Q9H161 169-303;209-274, |R272P)); assay: EMSA
ALX4 169-303;ALX4 K211E = ALX4 169-303;ALX4 K211E (Mus musculus (region identical to …, UniProt Q9H161;Q9H161 169-303;209-274, |K211E)); assay: EMSA
ALX4 R272P = ALX4 R272P (Mus musculus (region identical to human), UniProt Q9H161 209-274, R272P); assay: EMSA
ALX4 K211E = ALX4 K211E (Mus musculus (region identical to human), UniProt Q9H161 209-274, K211E); assay: EMSA
Chain of ALX4 K211E (Q9H161 209-274 K211E): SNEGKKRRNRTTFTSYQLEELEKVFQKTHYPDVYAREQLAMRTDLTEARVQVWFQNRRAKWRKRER

T1 sequence (Q9H161 209-274 R218Q): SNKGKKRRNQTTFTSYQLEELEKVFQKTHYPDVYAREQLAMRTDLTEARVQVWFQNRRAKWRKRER
Chain of ALX4 R215A (Q9H161 209-274 R215A): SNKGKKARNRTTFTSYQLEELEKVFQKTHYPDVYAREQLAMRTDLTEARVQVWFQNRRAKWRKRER
Chain of ALX4 169-303;ALX4 HD (209-274) (Mus musculus (Q9H161 169-303, chain 1 of 2): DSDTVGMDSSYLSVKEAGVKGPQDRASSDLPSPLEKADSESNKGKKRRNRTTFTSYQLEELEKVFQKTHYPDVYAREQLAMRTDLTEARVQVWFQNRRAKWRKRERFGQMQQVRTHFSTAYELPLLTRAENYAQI
Chain of ALX4 169-303;ALX4 HD (209-274) (Mus musculus (Q9H161 209-274, chain 2 of 2): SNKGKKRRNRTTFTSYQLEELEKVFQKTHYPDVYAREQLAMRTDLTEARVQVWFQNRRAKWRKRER
Chain of ALX4 169-303;ALX4 K211E (Mus musculus (Q9H161 169-303, stated change not applied, chain 1 of 2): as the sequence (Q9H161 169-303, chain 1 of 2) above
Chain of ALX4 169-303;ALX4 K211E (Mus musculus (Q9H161 209-274 K211E, chain 2 of 2): as the sequence (Q9H161 209-274 K211E) above
Chain of ALX4 169-303;ALX4 R272P (Mus musculus (Q9H161 169-303, stated change not applied, chain 1 of 2): as the sequence (Q9H161 169-303, chain 1 of 2) above
Chain of ALX4 169-303;ALX4 R272P (Mus musculus (Q9H161 209-274 R272P, chain 2 of 2): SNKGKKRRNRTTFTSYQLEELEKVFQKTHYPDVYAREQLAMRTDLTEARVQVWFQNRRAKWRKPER
Chain of ALX4 R216A (Q9H161 209-274 R216A): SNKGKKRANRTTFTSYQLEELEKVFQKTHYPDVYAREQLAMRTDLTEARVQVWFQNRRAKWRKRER
Chain of ALX4 R272P (Q9H161 209-274 R272P): as the sequence (Q9H161 209-274 R272P, chain 2 of 2) above
Chain of ALX4 R216G (Q9H161 209-274 R216G): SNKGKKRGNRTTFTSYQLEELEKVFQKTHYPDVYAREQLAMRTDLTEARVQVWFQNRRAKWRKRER
Chain of ALX4 R215A;R216A (Q9H161 209-274 R215A/R216A): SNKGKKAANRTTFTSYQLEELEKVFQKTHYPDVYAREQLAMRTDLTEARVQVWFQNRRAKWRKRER
Chain of ALX4 Q225E (Q9H161 209-274 Q225E): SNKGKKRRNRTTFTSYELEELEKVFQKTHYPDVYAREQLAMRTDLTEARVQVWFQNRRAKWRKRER

Binder	binding result (ALX4 R218Q [1])	binding result (ALX4 R218Q [2])	binding signal (ALX4 R215A;R216A)	binding signal (ALX4 R216A)	binding signal (ALX4 R215A)	binding signal (ALX4 R216G)	binding signal (ALX4 Q225E)	binding result [3]	binding result (ALX4 169-303;ALX4 R272P)	binding result (ALX4 169-303;ALX4 K211E)	binding result (ALX4 R272P)	binding result (ALX4 K211E)
B1	no binding											
B2		no binding	~20 fold reduction of Tau vs WT	~10 fold reduction of Tau vs WT	~5 fold reduction of Tau vs WT	~10 fold reduction of Tau vs WT	~2 fold reduction of Tau vs WT	binds	binds	binds	binds	binds
